Laboratory results as given in patent publication US20200347144A1 (SHANGHAI HYAMAB BIOTECH, published 2020).

Columns and labels:
[1] = molecular target: T1, monkey 4-1BB on CHOK1 cells (monkey); assay: FACS on CHOK1-c4-1BB cells, Alexa 488 secondary antibody, average fluorescence intensity
T1 construct: whole, on cells; also called CHOK1-c4-1BB
Description: The pIRES plasmid carrying the full-length gene of monkey-derived […] (the preparation method is the same as the preparation method of the pCpC vector carrying the human-derived IgG Fc fragment (hFc) in “Preparation of immunogen A” of the step (1) in Example 1, in which the database accession number of the amino acid sequence of the extracellular region of monkey 4-1BB protein (Phe19-Thr239) is G7PSE7) was transfected into CHOK1 cell line to obtain CHOK1 stable transfected cell line containing monkey 4-1BB (herein referred to as CHOK1-c4-1BB stable cell line). The CHOK1-h4-1BB stable cell line and the CHOK1-c4-1BB stable cell line were expanded and cultivated to 90% confluence in T-75 cell culture flasks. The medium was exhausted, and washed twice with HBSS buffer (Hanks Balanced Salt Solution, purchased from Invitrogen), and then the cells were treated and collected with enzyme-free cell dissociation solution (Versene solution, purchased from Life Technology). The cells were washed twice with HBSS buffer, and after cell counting, the cells were diluted with HBSS buffer to 2×10⁶ cells per ml, and 1% goat serum blocking solution was added, the percentage being the mass percentage. It was incubated on ice for 30 minutes, and then washed twice with HBSS buffer by centrifugation. The collected cells were suspended in FACS buffer (HBSS containing 1% BSA, the percentage was the mass percentage) to 2×10⁶ cells/mL, and 100 μl per well was added to a 96-well FACS reaction plate. The purified 4-1BB antibody test sample obtained in Example 2 was added, 100 microliters per well and incubated on ice for 2 hours. […] It was washed three times with FACS buffer by centrifugation, and 100 μl of fixative [4% (v/v) paraformaldehyde] per well was added to suspend cells, and washed twice with FACS buffer after 10 minutes by centrifugation. The cells were suspended with 100 microliters of FACS buffer, and the results were detected and analyzed with FACS (FACS Calibur, purchased from BD).

monkey 4-1BB-his protein [2] = molecular target: T2, monkey 4-1BB-his protein (monkey); assay: ELISA, coated monkey 4-1BB-his; Ab 0.0001 ug/ml
T2 construct: extracellular domain; Bought protein; also called extracellular domain of monkey-derived 4-1BB protein
Method: (§1) The purified immunogen A (4-1BB-hFc), monkey 4-1BB-his, and mouse 4-1BB-his obtained in Example 1 [for the preparation method, see step 1 of Example 1, preparation of immunogen A], of which the extracellular domain of monkey-derived 4-1BB protein (purchased from ACRO biosystems), the extracellular domain of mouse 4-1BB protein (purchased from sino biological) or other immune detection point proteins respectively were diluted with PBS to a final concentration of 1.0 μg/mL, then added with […] per well to 96-well ELISA plate. It was sealed with plastic film and incubated at 4° C. overnight. The next day, the plate was washed twice with the plate-washing solution [PBS containing 0.01% (v/v) Tween20] and blocking solution [PBS containing 0.01% (v/v) Tween 20 and 1% (v/v) BSA] was added and blocked at room temperature for 2 hours. The blocking solution was discarded and 100 μl of the purified 4-1BB antibody obtained in Example 2 was added per well. After incubated at 37° C. for 2 hours, the plate was washed 3 times with a plate-washing solution [PBS containing 0.01% (v/v) Tween20]. A secondary antibody (purchased from Sigma) labeled with HRP (horseradish peroxidase) was added, and after incubated at 37° C. for 2 hours, the plate was washed 3 times with a plate-washing solution [PBS containing 0.01% (v/v) Tween20]. 100 μl of TMB substrate was added per well. After incubated for 30 minutes at room temperature, 100 μl of stop buffer (1.0N HCl) was added per well. The A450 nm values were read using an ELISA plate reader (SpectraMax 384plus, Molecular Device).

monkey 4-1BB-his protein [3] = molecular target: T2, monkey 4-1BB-his protein; assay: ELISA, coated monkey 4-1BB-his; Ab 0.08 ug/ml
Method: as §1

monkey 4-1BB-his protein [4] = molecular target: T2, monkey 4-1BB-his protein; assay: ELISA: monkey 4-1BB-his coated at 1.0 µg/mL, antibody titrated, HRP secondary antibody, OD450
Method: as §1

monkey 4-1BB-his protein [5] = molecular target: T2, monkey 4-1BB-his protein; assay: ELISA, coated monkey 4-1BB-his; Ab 10 ug/ml
Method: as §1

monkey 4-1BB-his protein [6] = molecular target: T2, monkey 4-1BB-his protein; assay: ELISA, coated monkey 4-1BB-his; Ab 0.0032 ug/ml
Method: as §1

[7] = molecular target: T3, mouse 4-1BB protein (extracellular domain) (mouse, UniProt P20334 24-187); assay: ELISA: mouse 4-1BB protein coated at 1.0 µg/mL (target by Table 10; the legend paragraph 119 says monkey 4-1BB-hFc), antibody titrated, HRP secondary antibody, OD450
T3 construct: extracellular domain; also called mouse 4-1BB-his; mouse 4-1BB-hFc protein
T3 sequence (looked up): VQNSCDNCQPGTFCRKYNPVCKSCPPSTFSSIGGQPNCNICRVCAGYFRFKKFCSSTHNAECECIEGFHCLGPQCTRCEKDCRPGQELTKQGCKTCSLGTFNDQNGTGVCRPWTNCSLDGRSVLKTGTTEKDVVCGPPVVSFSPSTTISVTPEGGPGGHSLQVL
Method: as §1

monkey 4-1BB-his protein [8] = molecular target: T2, monkey 4-1BB-his protein; assay: ELISA, coated monkey 4-1BB-his; Ab 2 ug/ml
Method: as §1

[9] = molecular target: T3, mouse 4-1BB protein (extracellular …); assay: ELISA, coated mouse 4-1BB; Ab 0.4 ug/ml
Method: as §1

[10] = molecular target: T3, mouse 4-1BB protein (extracellular …); assay: ELISA, coated mouse 4-1BB; Ab 0.0006 ug/ml
Method: as §1

[11] = molecular target: T3, mouse 4-1BB protein (extracellular …); assay: ELISA, coated mouse 4-1BB; Ab 2 ug/ml
Method: as §1

monkey 4-1BB-his protein [12] = molecular target: T2, monkey 4-1BB-his protein; assay: ELISA, coated monkey 4-1BB-his; Ab 0.0006 ug/ml
Method: as §1

[13] = molecular target: T3, mouse 4-1BB protein (extracellular …); assay: ELISA, coated mouse 4-1BB; Ab 0.0032 ug/ml
Method: as §1

[14] = molecular target: T3, mouse 4-1BB protein (extracellular …); assay: ELISA, coated mouse 4-1BB; Ab 0.016 ug/ml
Method: as §1

[15] = molecular target: T3, mouse 4-1BB protein (extracellular …); assay: ELISA, coated mouse 4-1BB; Ab 0.08 ug/ml
Method: as §1

EC50 (read off the curve) [1]: ~0.1 µg/mL
OD450 nm (monkey 4-1BB-his protein [2]): 0.07 OD450 nm
OD450 nm (monkey 4-1BB-his protein [3]): 1.58 OD450 nm
EC50 (read off the curve) (monkey 4-1BB-his protein [4]): ~0.05 µg/mL
OD450 nm (monkey 4-1BB-his protein [5]): 2.36 OD450 nm
OD450 nm (monkey 4-1BB-his protein [6]): 0.14 OD450 nm
binding result [7]: no binding (tested: 10 µg/ml)
OD450 nm (monkey 4-1BB-his protein [8]): 2.2 OD450 nm
OD450 nm [9]: 0.08 OD450 nm
OD450 nm [10]: 0.05 OD450 nm
OD450 nm [11]: 0.18 OD450 nm
OD450 nm (monkey 4-1BB-his protein [12]): 0.08 OD450 nm
OD450 nm [13]: 0.05 OD450 nm
OD450 nm [14]: 0.05 OD450 nm
OD450 nm [15]: 0.05 OD450 nm
B1: 113F6C6 (antibody, V domains shown)
VH: QVQLVESGGGVVQPGRSLRLSCAASGLTFSSYGMHWVRQAPGKGLEWVAVIWYDGSNKYYADSVKGRFTISRDNSKNTLYLQMNSLRAEDTAVYYCAREEVLWFGELSYNYYYGMDVWGQGTTVTVSS
VL: DIQMTQSPSSLSASVGDRVTITCRASQGISNYLAWYQQKPGKVPKLLIYAASTLQSGVPSRFSGSGSGTDFTLTISSLQPEDVATYYCQKYNSVPLTFGGGTKVEIK
notes: also called 4-1BB fully human antibody 113F6C6; 113F6F6
